For three molecules, Kd results are on record in patent US20100003195A1 (published 2010).

First the molecules themselves.
T1: human KDR-Fc chimeric fusion (R&D Systems #357-KD-05) (human, UniProt P35968 20-764)
T1 chain: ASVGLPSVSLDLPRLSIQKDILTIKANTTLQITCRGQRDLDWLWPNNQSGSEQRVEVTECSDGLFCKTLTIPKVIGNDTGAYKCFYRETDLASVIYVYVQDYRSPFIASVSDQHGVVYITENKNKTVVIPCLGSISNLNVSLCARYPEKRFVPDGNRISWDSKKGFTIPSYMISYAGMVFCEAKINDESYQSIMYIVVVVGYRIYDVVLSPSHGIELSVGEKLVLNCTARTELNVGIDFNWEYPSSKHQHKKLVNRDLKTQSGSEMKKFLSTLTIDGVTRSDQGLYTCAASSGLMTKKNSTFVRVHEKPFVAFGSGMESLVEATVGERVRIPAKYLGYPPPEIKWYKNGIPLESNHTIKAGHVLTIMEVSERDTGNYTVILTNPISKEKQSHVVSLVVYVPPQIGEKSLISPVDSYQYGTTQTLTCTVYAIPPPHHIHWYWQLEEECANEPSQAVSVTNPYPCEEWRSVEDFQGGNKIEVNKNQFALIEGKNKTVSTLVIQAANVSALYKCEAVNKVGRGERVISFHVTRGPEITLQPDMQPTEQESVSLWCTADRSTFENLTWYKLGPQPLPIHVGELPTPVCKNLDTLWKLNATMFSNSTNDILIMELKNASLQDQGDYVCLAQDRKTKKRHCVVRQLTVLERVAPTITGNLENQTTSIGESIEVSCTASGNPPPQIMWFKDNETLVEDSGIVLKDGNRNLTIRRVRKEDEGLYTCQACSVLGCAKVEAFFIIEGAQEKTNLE

The target in the test is T1, human KDR-Fc chimeric fusion (R&D …). Briefly: -; KD, B.
Broadly, the Kd is a measure of binding affinity in units of concentration. A higher Kd goes with weaker binding. Molecule VCWEDSWGGEVCFGGGK [VCWEDSWGGEVCFGGGK (SEQ ID NO: 368)] gave a Kd of 910 nM.

SRVCWEDSWGGEVCFRYGGGGK [SRVCWEDSWGGEVCFRYGGGGK (SEQ ID NO: 371)] showed a Kd of 35 nM.

As to GDSRVCWEDSWGGEVCFGGGK [GDSRVCWEDSWGGEVCFGGGK (SEQ ID NO: 369)], the affinity, expressed as Kd, was 1300 nM.
